What was measured:
TIA1 RRM2_3 = molecular target: T1, TIA1 RRM2_3 (human, UniProt P31483-2 93-274); assay: EMSA; EMSA: 10 mM sodium phosphate pH 6.5, 50 mM NaCl, 1 mM DTT, 1 U/ul SUPERase-In, room temperature 20 min, native 1.2% agarose; RNA annealed in 10 mM Tris-HCl pH 7.5, 100 mM KCl; conditions: protein: recombinant, tags: His6-SUMO removed by SUMO protease, label: 5'-Cy3
T1 sequence: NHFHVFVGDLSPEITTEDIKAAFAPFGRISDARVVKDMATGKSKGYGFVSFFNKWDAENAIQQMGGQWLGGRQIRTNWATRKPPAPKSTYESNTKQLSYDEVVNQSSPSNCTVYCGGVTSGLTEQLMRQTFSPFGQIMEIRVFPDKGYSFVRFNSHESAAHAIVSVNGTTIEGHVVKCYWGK

TIA1 RRM1-3 = molecular target: T2, TIA1 RRM1-3 (human, UniProt P31483-2 1-274); assay: as above; conditions: protein: recombinant; tags: His6-SUMO, removed (same protocol as RRM2_3); label: 5'-Cy3; single strand
T2 sequence: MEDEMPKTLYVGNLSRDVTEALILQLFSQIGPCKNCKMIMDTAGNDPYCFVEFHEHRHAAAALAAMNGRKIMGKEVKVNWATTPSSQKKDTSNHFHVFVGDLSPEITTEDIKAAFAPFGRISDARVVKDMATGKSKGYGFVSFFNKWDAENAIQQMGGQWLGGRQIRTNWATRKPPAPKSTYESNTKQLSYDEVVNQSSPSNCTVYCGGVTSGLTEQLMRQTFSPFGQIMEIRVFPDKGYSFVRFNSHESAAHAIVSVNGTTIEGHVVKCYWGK

Q: Which Kd (TIA1 RRM2_3; two hairpins) does the source give for UUUCGAUCUCUUGUAGAUCUGUUCUCUAAACGAACUUUAAAAUCU (structured_RNA) [SL2+SL3] here?
A: The Kd was 430 ± 50 nM.

Q: Which Kd (TIA1 RRM2_3; hairpin, 5-nt loop) does the source give for UUUCGAUCUCUUGUAGAUC (structured_RNA) [SL2] here?
A: Its Kd is 2470 ± 370 nM.

Q: How did the Kd (TIA1 RRM2_3) turn out when UCACUCUUGAACGAACUUAAA (structured_RNA) [RousettusHKU9 SL3] was run?
A: The Kd was 410 ± 20 nM.

Q: Which Kd (TIA1 RRM2_3) does the source give for UUUGAUUUUAACGAACUUAAA (structured_RNA) [MERS SL3] here?
A: Its Kd is 300 ± 20 nM.

Q: Which Kd (TIA1 RRM2_3) does the source give for UGUUCUCUAAACGAACUUUAA (structured_RNA) [SL3] here?
A: The Kd was 780 ± 90 nM.

Q: What does the source list for UUUUUUUUUUU (ssRNA) [U11]?
A: binding result (TIA1 RRM1-3): binds; binding result (TIA1 RRM2_3; single strand): binds

Reference: paper PMC10287707
